# Results published in patent US20100040635A1 (SEA LANE BIOTECHNOLOGIES, published 2010).
# Changes are numbered by the printed parent chain.
# B1: Antibody 1 (antibody, V domains shown)
# VH: QVQLVQSGAEVKKPGSSVRVSCKTSGGTFSSYAVTWVRQAPGQGLEWMGGIIGMFGTTNYAQKFQGRLTITADEMTSTAYMELSSLRSEDTAVYYCARGSYYYETTLDYWGRGTL
# VL: ETTLTQSPGTLSLSPGERATLSCRVSQSVSSNYLAWYQQKPGQAPRLLIYGASSRATGIPDRFSGSGSGTDFTLTISRLEPEDFAVYYCQQYGTSPRAFGHGTKVEIKR
# B2: Antibody 2 (antibody, V domains shown)
# VH: B1 VH with R19K, L68V, M75L, T105S, T106S
# VL: ETTLTQSPATLSVSPGERATLSCRASQSVSRNLAWYQQKPGQAPRLLIYGASSRATGIPDRFSGSGSGTDFTLTISRLEPEDFAVYYCQQYGSSSITFGQGTRLEIKR
# B3: Antibody 3 (antibody, V domains shown)
# V domain 1: B1 VH with Q1E, R19K, G50A, L68V, M75L, E89D, T105S, T106S, R112K
# V domain 2: QSVLTQPPSVSGAPGQRVTISCGGSRSNIGAGYDVHWYQQFPGTAPKVVIYGNNNRPSGVPDRFSGSKSGTSASLAITGLQAEDEANYYCQSYDTNLGGSIFGGGTQVTVL
# B4: Antibody 4 (antibody, V domains shown)
# VH: QVQLQESGPGLVKPSETLSLTCTVSGYSFDSGYYWGWLRQPPGKGLEWIGSIYHSRNTYYNPSLKSRVTISVDTSKNQFSLQLSSVTAADTAVYYCARGTWYSSNLRYWFDPWGKGTL
# VL: NFMLTQPHSVSESPGKTVTISCTGSGGNIARNYVQWYQQRPGSAPVTVILEDDKRPSGIPDRFSGSIDRSSNSASLTISGLRTEDEALYYCQSYDDSDLVVFGGGTKLT
# Biological target: H3 hemagglutinin of influenza A/Hong Kong/68 (influenza A virus H3 A/Hong Kong/68)
# Assay: cell-based or functional assay
row,Binder,Minimum inhibitory concentrations required to neutralize virus [µg/mL]
1,B1,> 333
2,B2,> 333
3,B3,> 333
4,B4,> 333
